Assay results reported in US20250011456A1, “ANTIBODIES AGAINST CD14 AND USES THEREOF” (Villanelle Life Science Inc, priority 2023, published 2025).
Values joined by “and” are separate entries in the source; they are usually repeats but may differ in a detail not shown here. Identical values can stand only once.

Key:
[1] = Mouse weight under anti-CD14-IgG1 dosages of Example 7 (PDX mice); type: in vivo
Method: To evaluate concentrations for the anti-CD14-IgG1 antibody, PDX mice were treated with five different concentrations of the IgG1 antibody over a period of 28 days. For these experiments, drug administration on the PDX mice was performed intravenously on alternating 4 days and 3 days.
The five different concentrations of the anti-CD14-IgG1 antibody tested include 5 mg/kg, 10 mg/kg, 15 mg/kg, 25 mg/kg, and 40 mg/kg. A control regimen was utilized as a comparative example. […] The non-specific IgG1 has no binding affinity to antigen. […] Tumor weight and tumor volume were calculated as described above.

[2] = biological target: T1, human CD14 antigen (B294801, histidine tagged) (Homo sapiens, UniProt P08571); assay: Biacore 8K kinetic and affinity test of antibodies without PTM sites (Example 9); type: binding; conditions: Biacore 8K, analyte B294801 0.1953125-25 nM, capture conc. 1 μg/mL
T1 construct: His; purchased Shanghai BaiYing Biotechnology Co., Ltd B294801 (Batch number 20200518A22)
T1 sequence (P08571 20-345): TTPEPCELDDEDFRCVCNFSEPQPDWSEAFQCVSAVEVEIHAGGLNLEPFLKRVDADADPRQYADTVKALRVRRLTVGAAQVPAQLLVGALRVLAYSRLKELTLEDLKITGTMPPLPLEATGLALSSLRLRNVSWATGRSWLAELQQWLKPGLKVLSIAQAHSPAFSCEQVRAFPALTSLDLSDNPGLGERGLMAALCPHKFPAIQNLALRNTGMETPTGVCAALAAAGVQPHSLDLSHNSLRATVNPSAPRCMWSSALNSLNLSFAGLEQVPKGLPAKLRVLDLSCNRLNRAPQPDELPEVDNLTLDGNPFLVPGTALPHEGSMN
Method: Experimental reagents and consumables included cell culture fluid, electroporation buffer, CHO cells, 1 mL electroporation cuvette, Protein A chip (Cytiva, 29127556), various sizes of shake flasks, and various sizes of pipettes. Main instruments and equipment included a shaker (Taicang Huamei), centrifuge (Baiyang), ultrapure water system (Millipore), constant temperature incubator (BLUE PARD), electroporator, water bath, Biacore 8K (Cytiva), and ELISA system (Molecular Devices).
The antigen used for the binding affinity measurements is B294801. This antigen is a human CD14 antigen that is histidine tagged. D6DD3D001 is a mouse antibody, and MPDDAD001-MPDDAD005 are humanized antibodies. The antibodies are recombinant, human (hFc Tag). Selected parameters of the experimental samples are shown in Table 9-1, with MW referring to molecular weight in kDa.
The Biacore 8K platform was used to test the kinetic and affinity properties of the antibody, operating according to system instructions and indications.
Results of Affinity Detection. The affinity of the six antibodies was measured at saturation concentration. For the experiments, the analyte solution comprises the B294801 antigen with an analyte concentration of 0.1953125 nM, 0.390625 nM, 0.78125 nM, 1.5625 nM, 3.125 nM, 6.25 nM, 12.5 nM, and 25 nM. Change factor is described above.

B1: D6DD3D001: mouse-derived anti-CD14 IgG1 antibody; VH SEQ ID NO: 1, VL SEQ ID NO: 3, heavy chain SEQ ID NO: 2, light chain SEQ ID NO: 4 (antibody)
heavy: DVQLQQSGPGLVKPSQSLSLTCTVTGYSITSDSAWNWIRQFPGNRLEWMGYISYSGSTSYNPSLKSRISITRDTSKNQFFLQLNSVTTEDTATYYCVRGLRFAYWGQGTLVTVSSPSVFLFPPKPKDTLMISRTPEVTCVVVDVSHEDPEVKFNWYVDGVEVHNAKTKPREEQYNSTYRVVSVLTVLHQDWLNGKEYKCKVSNKALPAPIEKTISKAKGQPREPQVYTLPPSREEMTKNQVSLTCLVKGFYPSDIAVEWESNGQPENNYKTTPPVLDSDGSFFLYSKLTVDKSRWQQGNVFSCSVMHEALHNHYTQKSLSLSPGK
light: DIVLTQSPASLAVSLGQRATISCRASESVDSYVNSFLHWYQQKPGQPPKLLIYRASNLQSGIPARFSGSGSRTDFTLTINPVEADDVATYYCQQSNEDPYTFGGGTKLEIKRTVAAPSVFIFPPSDEQLKSGTASVVCLLNNFYPREAKVQWKVDNALQSGNSQESVTEQDSKDSTYSLSSTLTLSKADYEKHKVYACEVTHQGLSSPVTKSFNRGEC
- Mouse Weight ([1]; Day 11, IgG1 (15 mg/kg), per mouse 1-5, 15 mg/kg): 20.35 g and 20.89 g and 21.32 g and 21.08 g and 20.47 g
- Mouse Weight ([1]; Day 11, IgG1 (25 mg/kg), per mouse 1-5, 25 mg/kg): 20.11 g and 20.4 g and 19.5 g and 20.84 g and 21.5 g
- Mouse Weight ([1]; Day 14, IgG1 (5 mg/kg), per mouse 1-5, 5 mg/kg): 20.75 g and 21.06 g and 20.89 g and 21.69 g and 20.67 g
- Mouse Weight ([1]; Day 14, IgG1 (10 mg/kg), per mouse 1-5, 10 mg/kg): 20.15 g and 20.69 g and 21.19 g and 21.53 g and 20.71 g
- Mouse Weight ([1]; Day 14, IgG1 (15 mg/kg), per mouse 1-5, 15 mg/kg): 20.47 g and 21.16 g and 21.65 g and 20.87 g and 21.13 g
- Mouse Weight ([1]; Day 14, IgG1 (25 mg/kg), per mouse 1-5, 25 mg/kg): 20.13 g and 21.05 g and 20.39 g and 21.39 g and 21.62 g
- Mouse Weight ([1]; Day 18, IgG1 (5 mg/kg), per mouse 1-5, 5 mg/kg): 21.11 g and 21.36 g and 20.44 g and 20.69 g and 21.33 g
- Mouse Weight ([1]; Day 18, IgG1 (10 mg/kg), per mouse 1-5, 10 mg/kg): 21.27 g and 20.66 g and 21.04 g and 20.85 g and 21.37 g
- Mouse Weight ([1]; Day 18, IgG1 (15 mg/kg), per mouse 1-5, 15 mg/kg): 20.73 g and 21.69 g and 20.31 g and 20.9 g and 21.29 g
- Mouse Weight ([1]; Day 18, IgG1 (25 mg/kg), per mouse 1-5, 25 mg/kg): 21.14 g and 21.03 g and 20.46 g and 21.57 g and 21.77 g
- Mouse Weight ([1]; Day 21, IgG1 (5 mg/kg), per mouse 1-5, 5 mg/kg): 20.92 g and 21.85 g and 21.42 g and 21.87 g and 21.66 g
- Mouse Weight ([1]; Day 21, IgG1 (10 mg/kg), per mouse 1-5, 10 mg/kg): 21.25 g and 21.16 g and 20.97 g and 21.13 g and 21.28 g
- Mouse Weight ([1]; Day 21, IgG1 (15 mg/kg), per mouse 1-5, 15 mg/kg): 20.6 g and 21.12 g and 21.33 g and 20.4 g and 21.98 g
- Mouse Weight ([1]; Day 21, IgG1 (25 mg/kg), per mouse 1-5, 25 mg/kg): 21.3 g and 22.05 g and 21.54 g and 20.62 g and 21.57 g
- Mouse Weight ([1]; Day 25, IgG1 (5 mg/kg), per mouse 1-5, 5 mg/kg): 22.45 g and 21.06 g and 21.98 g and 22.14 g and 22.16 g
- Mouse Weight ([1]; Day 25, IgG1 (10 mg/kg), per mouse 1-5, 10 mg/kg): 22.27 g and 22.35 g and 21.64 g and 20.37 g and 22.93 g
- Mouse Weight ([1]; Day 25, IgG1 (15 mg/kg), per mouse 1-5, 15 mg/kg): 22.28 g and 21.01 g and 22.42 g and 20.52 g and 22.73 g
- Mouse Weight ([1]; Day 25, IgG1 (25 mg/kg), per mouse 1-5, 25 mg/kg): 22.17 g and 21.73 g and 22.39 g and 21.5 g and 20.56 g
- Mouse Weight ([1]; Day 28, IgG1 (5 mg/kg), per mouse 1-5, 5 mg/kg): 22.42 g and 23.8 g and 22.04 g and 21.81 g and 21.72 g
- Mouse Weight ([1]; Day 28, IgG1 (10 mg/kg), per mouse 1-5, 10 mg/kg): 22.71 g and 23.8 g and 21.44 g and 22.24 g and 21.16 g
- Mouse Weight ([1]; Day 28, IgG1 (15 mg/kg), per mouse 1-5, 15 mg/kg): 22.57 g and 21.49 g and 23.11 g and 21.72 g and 23.44 g
- Mouse Weight ([1]; Day 28, IgG1 (25 mg/kg), per mouse 1-5, 25 mg/kg): 22.62 g and 23.62 g and 22.69 g and 21.64 g and 23.4 g
- Mouse Weight ([1]; IgG1 40 mg/kg group, Day 0, individual mice 1-5, 40 mg/kg): 20.64 g and 20.79 g and 20.06 g and 20.43 g and 19.66 g
- Mouse Weight ([1]; IgG1 40 mg/kg group, Day 4, individual mice 1-5, 40 mg/kg): 20.37 g and 20.71 g and 19.79 g and 20.56 g and 20.73 g
- Mouse Weight ([1]; IgG1 40 mg/kg group, Day 7, individual mice 1-5, 40 mg/kg): 20.29 g and 20.01 g and 20.53 g and 21.04 g and 20.66 g
- Mouse Weight ([1]; IgG1 40 mg/kg group, Day 11, individual mice 1-5, 40 mg/kg): 20.49 g and 21.74 g and 20.21 g and 21.3 g and 20.92 g
- Mouse Weight ([1]; IgG1 40 mg/kg group, Day 14, individual mice 1-5, 40 mg/kg): 21.19 g and 20.75 g and 20.83 g and 20.91 g and 20.61 g
- Mouse Weight ([1]; IgG1 40 mg/kg group, Day 18, individual mice 1-5, 40 mg/kg): 21.32 g and 21.28 g and 21.36 g and 20.36 g and 21.14 g
- Mouse Weight ([1]; IgG1 40 mg/kg group, Day 21, individual mice 1-5, 40 mg/kg): 21.75 g and 20.47 g and 21.5 g and 21.64 g and 21.77 g
- Mouse Weight ([1]; IgG1 40 mg/kg group, Day 25, individual mice 1-5, 40 mg/kg): 22.33 g and 21.23 g and 22.07 g and 21.9 g and 22.06 g
- Mouse Weight ([1]; IgG1 40 mg/kg group, Day 28, individual mice 1-5, 40 mg/kg): 23.59 g and 23.7 g and 22.4 g and 21.39 g and 22.91 g
- Koff [2]: 0.00108 s⁻¹
- kon (1:1 binding) [2]: 1.25e+06 M⁻¹ s⁻¹
